Experiments:
[1] = molecular target: asialotransferrin (human) (UniProt P02787); test: SPR, asialotransferrin on CM5 chip, lectin as analyte
[2] = molecular target: chicken egg yolk antibody (chicken IgY antibody) (chicken); test: SPR (Biacore 2000), chicken IgY on CM5 chip, lectin as analyte

Sequence of asialotransferrin (human) (P02787 20-698 limits assumed): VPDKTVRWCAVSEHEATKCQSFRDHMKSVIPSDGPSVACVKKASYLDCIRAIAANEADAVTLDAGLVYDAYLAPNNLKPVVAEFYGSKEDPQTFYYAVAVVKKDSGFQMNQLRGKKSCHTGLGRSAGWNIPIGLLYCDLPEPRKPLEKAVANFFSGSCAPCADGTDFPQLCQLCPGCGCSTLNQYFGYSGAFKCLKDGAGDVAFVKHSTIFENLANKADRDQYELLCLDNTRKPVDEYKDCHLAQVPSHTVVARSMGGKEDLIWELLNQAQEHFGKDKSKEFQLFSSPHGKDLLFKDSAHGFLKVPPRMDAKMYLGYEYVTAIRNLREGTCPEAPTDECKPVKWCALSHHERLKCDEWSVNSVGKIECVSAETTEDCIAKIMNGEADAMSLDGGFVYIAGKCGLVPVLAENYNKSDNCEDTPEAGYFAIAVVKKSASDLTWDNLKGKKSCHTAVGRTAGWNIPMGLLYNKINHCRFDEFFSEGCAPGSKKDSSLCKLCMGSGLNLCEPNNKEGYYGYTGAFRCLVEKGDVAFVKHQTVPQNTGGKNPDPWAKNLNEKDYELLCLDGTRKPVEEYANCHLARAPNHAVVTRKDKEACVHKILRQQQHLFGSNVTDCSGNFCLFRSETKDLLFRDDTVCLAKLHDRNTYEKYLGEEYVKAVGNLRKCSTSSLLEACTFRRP

| Substance | Ka [1] | Ka [2] | Kd [2] | koff [2] | kon [2] |
| --- | --- | --- | --- | --- | --- |
| Carpopeltis flabellata-derived lectin Carnin | 1e+08 M⁻¹ | 6.57e+07 M⁻¹ | 0.0152 µM | 0.00172 s⁻¹ | 113000 M⁻¹ s⁻¹ |
| Canavallia ensiformis-derived lectin Con A (from UniProt P02866 30-281) | – | 1.87e+07 M⁻¹ | 0.0534 µM | 2.49e-05 s⁻¹ | 467 M⁻¹ s⁻¹ |
| Hypnea japonica-derived lectin Hypnin A-1 | – | 7.1e+07 M⁻¹ | 0.0141 µM | 0.000298 s⁻¹ | 21200 M⁻¹ s⁻¹ |
| Solieria robusta-derived lectin Solnin B | – | 2.88e+07 M⁻¹ | 0.0347 µM | 0.00564 s⁻¹ | 162000 M⁻¹ s⁻¹ |

Reference: US20090035818A1
